# Entries after “also recorded” stand apart in the source; their conditions may differ. Where two headings read alike, the source gives them in different places.
# B1: NHH: bifunctional chimeric protein NIF-(Gly)5-hirugen, 274 amino acids, of Chinese patent application 031011551; control protein (protein)
# chain: NEHNLRCPQNGTEMPGFNDSIRLQFLAMHNGYRSKLALGHISITEESESDDDDDFGFLPDFAPRASKMRYLEYDCEAEKSAYMSARNCSDSSSPPEGYDENKYIFENSNNISEAALKAMISWAKEAFNLNKTKEGEGVLYRSNHDISNFANLAWDAREKFGCAVVNCPLGEIDDETNHDGETYATTIHVVCHYPKINKTEGQPIYKVGTPCDDCSEYTKKADNTTSADPVCIPDDGVCFIGSKADYDSKEFYRFRELGGGGGNGDFEEIPEEYL
# B2: NIF: Neutrophil inhibitory factor, 257 amino acids; prepared by Chongqing Fujin Biology and Medicine Company (protein)
# chain: NEHNLRCPQNGTEMPGFNDSIRLQFLAMHNGYRSKLALGHISITEESESDDDDDFGFLPDFAPRASKMRYLEYDCEAEKSAYMSARNCSDSSSPPEGYDENKYIFENSNNISEAALKAMISWAKEAFNLNKTKEGEGVLYRSNHDISNFANLAWDAREKFGCAVVNCPLGEIDDETNHDGETYATTIHVVCHYPKINKTEGQPIYKVGTPCDDCSEYTKKADNTTSADPVCIPDDGVCFIGSKADYDSKEFYRFREL
# Experiments:
# leukocyte adhesion = experiment: anti-leukocyte adhesion activity, in vitro comparative analysis; type: cell-based; details: in vitro
# [1] = test system: cerebral ischemia in rats subjected to middle cerebral artery occlusion; type: in vivo, Wistar rats; details: for behavioral score / pathological section of brain (cerebral cortex nerve cells): 2 mg/kg bid caudal vein; for behavioral score: full score 11; for pathological section of brain (cerebral cortex nerve cells): HE, compared with model group
# [2] = test system: experimental cerebral hematoma in rats; experiment: effects on experimental cerebral hematoma in rats; type: in vivo, SD rats; set-up: key to behavioral score: neurologic defect score, full score 11; higher = more severe disorder; details: for behavioral score / Brain water content (%): 2 mg/kg bid caudal vein; for behavioral score: full score 11; for Brain water content (%): dry and wet method; for degree of pathological change, remaining cases: 2-3 cases per group
# Method: SD rats were randomly divided into 4 groups (8 animals per group), including model group, NHH group, NIF group and TNHH group. The rats in each group were anesthetized by chloral hydrate, and then 0.1 ml blood was collected by amputation of tail. The rats were fixed in a stereotaxic apparatus. Median incision of scalp was performed and the periosteum was cut open to expose bregma. Subsequently, a small hole with a diameter of 1 mm was perforated for needle insertion of microsyringe fixed on the stereotaxic apparatus with insertion depth of 5.8 mm (i.e to the position of caudate nucleus) at the site which was 1 mm rearward to the bregma and 3 mm left to the midline, and then 0.1 ml autoblood was injected slowly. Neurological functional defect score was immediately evaluated based on the evaluation criterion after the animal got conscious. The animal with behavior score less than 11 was selected in this study. Behavior score evaluation was continuously carried out after the establishment of model till the end of the experiment.
# The neurologic function defect score was evaluated at 5 time points of 4 h, 12 h, 24 h, 48 h and 72 h after the model establishment. Changes of brain water content and histopathological observation were performed at 72 h after the model establishment on sacrificed rats.
# Corresponding medicaments (2 mg/kg, bid) were administered through the caudal vein to animals with administration volume of 1 ml/100 g in each group after model animal was successfully established (according to the score less than 11 based on the behavior score evaluation), while the model group received physiological saline in the corresponding volume.
# The brain was taken out immediately after the sacrifice of animals, and then […] ectocinerea (cortex was removed) at the edge of haematoma was collected. The brain water content was determined using dry and wet method based on the following formula: Brain water content=(wet weight−dry weight)/wet weight×100%
# The brain was immediately taken out by decollation at selected time points, and it was sliced up to be 2 mm thick along the coronal section and then fixed in 10% formaldehyde. The slices were stained by regular HE and mounted. Then the pathological changes occurred in pathological region and the neighboring brain tissues were observed.
# Evaluation was performed at the time of 4 h, 12 h, 24 h, 48 h and 72 h after surgery. The method was described as follows:
# The flection of forelimbs was observed by lifting the rat by its tail. If the forelimbs symmetrically extended toward the floor, the score was 0. While if wrist flection, or elbow inflection, or internal rotation of shoulder, or both elbow inflection and internal rotation of shoulder occurred to forelimbs of the rat on the opposite side of the surgery part, it was evaluated as scores of 1, 2, 3 and 4, respectively.
# The animal was placed on flat floor, and then both shoulders were pushed to move towards the opposite side to examine the resistance. If the resistances on both sides were equal and forceful, it was evaluated as 0. While if the resistance decreased slightly, mildly or severely when pushed to the opposite side of the surgery part, it was evaluated as 1, 2 or 3, respectively.
# Both forelimbs of the animal were placed on a metal mesh to observe the muscular tension. The rat with equal and forceful muscular tension of both forelimbs was evaluated as 0. In the same way, the rat was evaluated as 1, 2 or 3, respectively with the reduction of muscular tension on the opposite side of the surgery part mentioned above.
# The animal tended to keep turning around to one side was evaluated as 1. Based on the evaluation criterion (with full score of 11), the higher the score was evaluated, the more severe the behavior disorder was.
# thrombin = thrombin (Homo sapiens, UniProt P00734); experiment: antithrombin activity, in vitro comparative analysis; type: biochemical; set-up: TNHH-G15/n3 and TNHH have the same antithrombin activity
# [3] = 2 mg/kg bid, brain pathological section
Molecule,anti-leukocyte adhesion activity (leukocyte adhesion) [Unit/mg],behavioral score ([1]; 4 h),behavioral score ([1]; 8 h),behavioral score ([1]; 24 h),behavioral score ([1]; 48 h),behavioral score ([1]; 72 h),pathological section of brain (cerebral cortex nerve cells) [1],Cerebral infarction volume (%) ([1]; 72 h),behavioral score ([2]; 4 h),behavioral score ([2]; 12 h),behavioral score ([2]; 24 h),behavioral score ([2]; 48 h),Brain water content (%) ([2]; 72 h),behavioral score ([2]; 72 h),"degree of pathological change, remaining cases [2, 3]","degree of pathological change, most cases ([2]; 2 mg/kg bid, brain pathological section, model group mostly ++→+++)",antithrombin activity (thrombin)
B1,650,8.2 ± 1.7,8.2 ± 1.7,8.0 ± 1.4,6.5 ± 1.4,5.7 ± 1.2,"less pathological changes; also recorded: less regular arrangements, a portion of deeply stained nucleus, and some cytoplasmic shrinkage or disappearance",25.2 ± 5.2,2.14 ± 0.69,1.86 ± 0.90,2.43 ± 1.00,2.57 ± 0.13,78.66 ± 0.55,3.57 ± 1.72,+→++,–,–
B2,750,6.2 ± 0.8,6.5 ± 1.2,5.5 ± 0.5,5.5 ± 0.4,5.5 ± 0.5,"less pathological changes; also recorded: less regular arrangements, a portion of deeply stained nucleus, and some cytoplasmic shrinkage or disappearance",24.9 ± 9.6,1.86 ± 0.90,2.14 ± 0.90,2.43 ± 0.53,3.14 ± 0.90,79.36 ± 0.47,4.14 ± 1.68,+→++,±→+,None
